{
  "source": "the RNAGym collection of RNA variant scans (doi:10.1093/molbev/msab373)",
  "parents": {"B1": {"name": "Azoarcus group I ribozyme (parent)", "chain": "GUGCCUUGCGCCGGGAAACCACGCAAGGGAUGGUGUCAAAUUCGGCGAAACCUAAGCGCCCGCCCGGGCGUAUGGCAACGCCGAGCCAAGCUUCGGCGCCUGCGCCGAUGAAGGUGUAGAGACUAGACGGCACCCACCUAAGGCAAACGCUAUGGUGAAGGCAUAGUCCAGGGAGUGGCGAAAGUCACACAAACCGG"}},
  "data": [
    {"variants_of": "B1", "assay": "reverse-splicing fitness (ratio to wild type); higher = more active; in vitro selection; Mg2+ level not given", "procedure,_shortened": "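An in vitro group I ribozyme library with randomized positions was T7-transcribed and gel-purified. In triplicate, 10 pmol RNA in EPPS pH 7.5 was reacted with 50 pmoles of a 30-nt RNA substrate for 1 h at 37 °C across several added MgCl2 levels (1–48 mM), then stopped with EDTA. Products were reverse transcribed from a substrate-complementary primer, PCR-amplified and sequenced (HiSeq 4000). Fitness is a variant's read proportion after selection over that before, normalised to wild type.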", "values": [
      {"variant": "GUGCCUUGCGCCGGGAAACCACGCAAGGGAUGGUGUCAAAUUCGGCGAAACCUAAGCGCCCGCCCGGGCGUAUGGCAACGCUGAGCCAAGCUUCGGCGCCUGCGCCGAUGCAGGUGUAGGGACUAGACGGCACCCACCUAAGGCUAACGUUAUGGUGAAGGCAUAGUCUAGGGAGAGGCGAAAGUCACACAAACCGG", "note": "[C82U A111C A120G A145U C150U C169U U176A]", "reverse-splicing fitness": 0.0158},
      {"variant": "GUGCCUUGCGCCGGGAAACCACGCAAGGGAUGGUGUCAAAUUCGGCGAAACCUAAGCGCCCGCCCGGGCGUAUGGCAACGCUGAGCCAAGCUUCGGCGCCUGCGCCGAUGCAGGUGUAGGGACUAGACGGCACCCACCUAAGGCUAACGUUAUGGUGAAGGCAUAGUCUAGGGAGGGGCGAAAGUCACACAAACCGG", "note": "[C82U A111C A120G A145U C150U C169U U176G]", "reverse-splicing fitness": 0.00431},
      {"variant": "GUGCCUUGCGCCGGGAAACCACGCAAGGGAUGGUGUCAAAUUCGGCGAAACCUAAGCGCCCGCCCGGGCGUAUGGCAACGCUGAGCCAAGCUUCGGCGCCUGCGCCGAUGCAGGUGUAGGGACUAGACGGCACCCACCUAAGGCUAACGUUAUGGUGAAGGCAUAGUCUAGGGAGCGGCGAAAGUCACACAAACCGG", "note": "[C82U A111C A120G A145U C150U C169U U176C]", "reverse-splicing fitness": 0.0107},
      {"variant": "GUGCCUUGCGCCGGGAAACCACGCAAGGGAUGGUGUCAAAUUCGGCGAAACCUAAGCGCCCGCCCGGGCGUAUGGCAACGCUGAGCCAAGCUUCGGCGCCUGCGCCGAUGCAGGUGUAGGGACUAGACGGCACCCACCUAAGGCUAACGCUAUGGUGAAGGCAUAGUCAAGGGAGAGGCGAAAGUCACACAAACCGG", "note": "[C82U A111C A120G A145U C169A U176A]", "reverse-splicing fitness": 0.00825},
      {"variant": "GUGCCUUGCGCCGGGAAACCACGCAAGGGAUGGUGUCAAAUUCGGCGAAACCUAAGCGCCCGCCCGGGCGUAUGGCAACGCUGAGCCAAGCUUCGGCGCCUGCGCCGAUGCAGGUGUAGGGACUAGACGGCACCCACCUAAGGCUAACGCUAUGGUGAAGGCAUAGUCAAGGGAGGGGCGAAAGUCACACAAACCGG", "note": "[C82U A111C A120G A145U C169A U176G]", "reverse-splicing fitness": 0.00418},
      {"variant": "GUGCCUUGCGCCGGGAAACCACGCAAGGGAUGGUGUCAAAUUCGGCGAAACCUAAGCGCCCGCCCGGGCGUAUGGCAACGCUGAGCCAAGCUUCGGCGCCUGCGCCGAUGCAGGUGUAGGGACUAGACGGCACCCACCUAAGGCUAACGCUAUGGUGAAGGCAUAGUCAAGGGAGCGGCGAAAGUCACACAAACCGG", "note": "[C82U A111C A120G A145U C169A U176C]", "reverse-splicing fitness": 0.01},
      {"variant": "GUGCCUUGCGCCGGGAAACCACGCAAGGGAUGGUGUCAAAUUCGGCGAAACCUAAGCGCCCGCCCGGGCGUAUGGCAACGCUGAGCCAAGCUUCGGCGCCUGCGCCGAUGCAGGUGUAGGGACUAGACGGCACCCACCUAAGGCUAACGCUAUGGUGAAGGCAUAGUCUAGGGAGUGGCGAAAGUCACACAAACCGG", "note": "[C82U A111C A120G A145U C169U]", "reverse-splicing fitness": 0.00765},
      {"variant": "GUGCCUUGCGCCGGGAAACCACGCAAGGGAUGGUGUCAAAUUCGGCGAAACCUAAGCGCCCGCCCGGGCGUAUGGCAACGCUGAGCCAAGCUUCGGCGCCUGCGCCGAUGCAGGUGUAGGGACUAGACGGCACCCACCUAAGGCUAACGCUAUGGUGAAGGCAUAGUCGAGGGAGUGGCGAAAGUCACACAAACCGG", "note": "[C82U A111C A120G A145U C169G]", "reverse-splicing fitness": 0.00905},
      {"variant": "GUGCCUUGCGCCGGGAAACCACGCAAGGGAUGGUGUCAAAUUCGGCGAAACCUAAGCGCCCGCCCGGGCGUAUGGCAACGCUGAGCCAAGCUUCGGCGCCUGCGCCGAUGCAGGUGUAGGGACUAGACGGCACCCACCUAAGGCUAACGCUAUGGUGAAGGCAUAGUCAAGGGAGUGGCGAAAGUCACACAAACCGG", "note": "[C82U A111C A120G A145U C169A]", "reverse-splicing fitness": 0.00767},
      {"variant": "GUGCCUUGCGCCGGGAAACCACGCAAGGGAUGGUGUCAAAUUCGGCGAAACCUAAGCGCCCGCCCGGGCGUAUGGCAACGCUGAGCCAAGCUUCGGCGCCUGCGCCGAUGCAGGUGUAGGGACUAGACGGCACCCACCUAAGGCAAACGAUAUGGUGAAGGCAUAGUCCAGGGAGUGGCGAAAGUCACACAAACCGG", "note": "[C82U A111C A120G C150A]", "reverse-splicing fitness": 0.00908},
      {"variant": "GUGCCUUGCGCCGGGAAACCACGCAAGGGAUGGUGUCAAAUUCGGCGAAACCUAAGCGCCCGCCCGGGCGUAUGGCAACGCUGAGCCAAGCUUCGGCGCCUGCGCCGAUGCAGGUGUAGGGACUAGACGGCACCCACCUAAGGCUAACGUUAUGGUGAAGGCAUAGUCAAGGGAGCGGCGAAAGUCACACAAACCGG", "note": "[C82U A111C A120G A145U C150U C169A U176C]", "reverse-splicing fitness": 0.00758},
      {"variant": "GUGCCUUGCGCCGGGAAACCACGCAAGGGAUGGUGUCAAAUUCGGCGAAACCUAAGCGCCCGCCCGGGCGUAUGGCAACGCUGAGCCAAGCUUCGGCGCCUGCGCCGAUGCAGGUGUAGGGACUAGACGGCACCCACCUAAGGCUAACGUUAUGGUGAAGGCAUAGUCAAGGGAGGGGCGAAAGUCACACAAACCGG", "note": "[C82U A111C A120G A145U C150U C169A U176G]", "reverse-splicing fitness": 0.00451},
      {"variant": "GUGCCUUGCGCCGGGAAACCACGCAAGGGAUGGUGUCAAAUUCGGCGAAACCUAAGCGCCCGCCCGGGCGUAUGGCAACGCUGAGCCAAGCUUCGGCGCCUGCGCCGAUGCAGGUGUAGGGACUAGACGGCACCCACCUAAGGCUAACGUUAUGGUGAAGGCAUAGUCAAGGGAGAGGCGAAAGUCACACAAACCGG", "note": "[C82U A111C A120G A145U C150U C169A U176A]", "reverse-splicing fitness": 0.0111},
      {"variant": "GUGCCUUGCGCCGGGAAACCACGCAAGGGAUGGUGUCAAAUUCGGCGAAACCUAAGCGCCCGCCCGGGCGUAUGGCAACGCUGAGCCAAGCUUCGGCGCCUGCGCCGAUGCAGGUGUAGGGACUAGACGGCACCCACCUAAGGCUAACGUUAUGGUGAAGGCAUAGUCCAGGGAGCGGCGAAAGUCACACAAACCGG", "note": "[C82U A111C A120G A145U C150U U176C]", "reverse-splicing fitness": 0.0178},
      {"variant": "GUGCCUUGCGCCGGGAAACCACGCAAGGGAUGGUGUCAAAUUCGGCGAAACCUAAGCGCCCGCCCGGGCGUAUGGCAACGCUGAGCCAAGCUUCGGCGCCUGCGCCGAUGCAGGUGUAGGGACUAGACGGCACCCACCUAAGGCUAACGUUAUGGUGAAGGCAUAGUCCAGGGAGGGGCGAAAGUCACACAAACCGG", "note": "[C82U A111C A120G A145U C150U U176G]", "reverse-splicing fitness": 0.00357}
    ]}
  ]
}
